One molecule from article PMC5393055 (Genes & Development, 2017) can be followed below.

The target in the assay is T1, full-length GST-SUUR (Drosophila, UniProt Q9VTE2 1-962).
T1 sequence (looked up): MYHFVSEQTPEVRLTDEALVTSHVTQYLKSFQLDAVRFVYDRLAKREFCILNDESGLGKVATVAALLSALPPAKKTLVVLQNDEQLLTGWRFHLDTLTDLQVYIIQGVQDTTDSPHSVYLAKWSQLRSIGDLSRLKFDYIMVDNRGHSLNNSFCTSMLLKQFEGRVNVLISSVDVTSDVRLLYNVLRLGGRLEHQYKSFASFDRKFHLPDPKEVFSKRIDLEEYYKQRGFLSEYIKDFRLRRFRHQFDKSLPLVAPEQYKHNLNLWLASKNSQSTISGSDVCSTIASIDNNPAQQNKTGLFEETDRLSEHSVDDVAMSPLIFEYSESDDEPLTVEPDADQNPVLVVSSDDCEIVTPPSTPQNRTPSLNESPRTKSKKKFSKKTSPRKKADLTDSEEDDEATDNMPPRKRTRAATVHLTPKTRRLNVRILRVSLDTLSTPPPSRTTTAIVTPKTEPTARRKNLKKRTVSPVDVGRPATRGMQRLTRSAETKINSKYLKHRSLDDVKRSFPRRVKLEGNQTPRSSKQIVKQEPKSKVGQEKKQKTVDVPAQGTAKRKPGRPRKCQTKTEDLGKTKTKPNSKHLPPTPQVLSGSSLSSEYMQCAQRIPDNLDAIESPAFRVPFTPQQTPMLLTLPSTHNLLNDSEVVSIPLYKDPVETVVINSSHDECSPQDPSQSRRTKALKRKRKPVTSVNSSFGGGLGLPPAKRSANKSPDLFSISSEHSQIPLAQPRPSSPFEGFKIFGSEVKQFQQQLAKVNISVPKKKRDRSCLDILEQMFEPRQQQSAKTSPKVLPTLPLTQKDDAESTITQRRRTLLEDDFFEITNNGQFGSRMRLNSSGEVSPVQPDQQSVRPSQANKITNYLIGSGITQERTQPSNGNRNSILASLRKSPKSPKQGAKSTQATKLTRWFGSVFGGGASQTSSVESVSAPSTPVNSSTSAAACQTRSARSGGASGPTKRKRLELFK
Description: pull-down.

B1: recombinant untagged full-length H1 (natural protein, Drosophila, UniProt P02255 1-256, looked up)
chain: MSDSAVATSASPVAAPPATVEKKVVQKKASGSAGTKAKKASATPSHPPTQQMVDASIKNLKERGGSSLLAIKKYITATYKCDAQKLAPFIKKYLKSAVVNGKLIQTKGKGASGSFKLSASAKKEKDPKAKSKVLSAEKKVQSKKVASKKIGVSSKKTAVGAADKKPKAKKAVATKKTAENKKTEKAKAKDAKKTGIIKSKPAATKAKVTAAKPKAVVAKASKAKPAVSAKPKKTVKKASVSATAKKPKAKTTAAKK
Turning to B1, the binding result is “binds”.
